T1: ARHGEF11, O15085
T1 sequence (O15085 42-136, limits assumed, looked up): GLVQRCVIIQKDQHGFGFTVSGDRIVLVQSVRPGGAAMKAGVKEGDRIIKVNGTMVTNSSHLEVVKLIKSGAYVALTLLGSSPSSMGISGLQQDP

T2: APBA2_2, Q99767
T2 sequence (Q99767 654-744, limits assumed, looked up): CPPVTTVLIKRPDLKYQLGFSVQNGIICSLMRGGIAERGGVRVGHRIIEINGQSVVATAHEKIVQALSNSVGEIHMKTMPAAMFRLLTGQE

T3: NHERF3_3, Q5T2W1
T3 sequence (Q5T2W1 238-333, limits assumed, looked up): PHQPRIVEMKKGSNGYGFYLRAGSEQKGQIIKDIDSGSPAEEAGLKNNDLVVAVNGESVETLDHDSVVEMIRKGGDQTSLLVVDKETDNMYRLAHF

T4: LNX2_2, Q8N448
T4 sequence (Q8N448 334-432, limits assumed, looked up): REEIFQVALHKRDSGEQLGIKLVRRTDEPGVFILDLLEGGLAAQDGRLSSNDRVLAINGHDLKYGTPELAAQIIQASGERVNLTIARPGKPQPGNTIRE

T5: DFNB31_3, Q9P202
T5 sequence (Q9P202 811-907, limits assumed, looked up): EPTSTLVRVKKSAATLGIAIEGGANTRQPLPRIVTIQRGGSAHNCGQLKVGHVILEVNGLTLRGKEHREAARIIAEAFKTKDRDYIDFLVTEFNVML

T6: DFNB31_2, Q9P202
T6 sequence (Q9P202 274-371, limits assumed, looked up): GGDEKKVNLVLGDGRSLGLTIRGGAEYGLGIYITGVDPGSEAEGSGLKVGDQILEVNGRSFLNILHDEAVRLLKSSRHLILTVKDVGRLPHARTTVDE

T7: MPDZ_10, O75970
T7 sequence (O75970 1624-1722, limits assumed, looked up): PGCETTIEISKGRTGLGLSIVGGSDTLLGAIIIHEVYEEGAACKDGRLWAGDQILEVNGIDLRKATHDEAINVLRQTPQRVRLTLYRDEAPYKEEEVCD

T8: LNX2_3, Q8N448
T8 sequence (Q8N448 463-564, limits assumed, looked up): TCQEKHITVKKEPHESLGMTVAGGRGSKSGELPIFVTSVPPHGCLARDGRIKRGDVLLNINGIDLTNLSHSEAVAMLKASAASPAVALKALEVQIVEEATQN

T9: HTRA3, P83110
T9 sequence (P83110 354-453, limits assumed, looked up): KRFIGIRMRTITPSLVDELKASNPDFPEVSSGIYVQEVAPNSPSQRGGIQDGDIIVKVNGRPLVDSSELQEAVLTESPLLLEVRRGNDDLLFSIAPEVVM


Columns and labels:
Test in all cases: holdup assay
Design in all cases: key: below the threshold = too weak to quantify, mostly under pKd 3.1 to 4
Settings in all cases: plain residues with an end cap or a label only (N-terminal biotin on a linker: ttds)
IL16_3, Q14005 = target: IL16_3, Q14005
Sequence of IL16_3, Q14005 (Q14005 1107-1207): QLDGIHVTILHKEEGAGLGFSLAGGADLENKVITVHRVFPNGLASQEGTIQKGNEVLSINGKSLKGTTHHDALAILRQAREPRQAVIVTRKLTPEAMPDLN

DLG1_3, Q12959 = target: DLG1_3, Q12959
Sequence of DLG1_3, Q12959 (Q12959 457-571): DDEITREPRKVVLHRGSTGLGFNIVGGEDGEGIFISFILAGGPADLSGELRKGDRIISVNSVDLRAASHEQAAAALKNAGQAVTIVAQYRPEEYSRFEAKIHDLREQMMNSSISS

GRIP2_4, Q9C0E4 = target: GRIP2_4, Q9C0E4
Sequence of GRIP2_4, Q9C0E4 (Q9C0E4 446-548): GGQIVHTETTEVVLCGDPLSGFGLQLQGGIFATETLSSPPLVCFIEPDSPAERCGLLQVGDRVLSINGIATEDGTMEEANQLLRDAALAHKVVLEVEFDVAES

ARHGEF11, O15085 = target: T1, ARHGEF11, O15085
GRIP2_5, Q9C0E4 = target: GRIP2_5, Q9C0E4
Sequence of GRIP2_5, Q9C0E4 (Q9C0E4 544-642): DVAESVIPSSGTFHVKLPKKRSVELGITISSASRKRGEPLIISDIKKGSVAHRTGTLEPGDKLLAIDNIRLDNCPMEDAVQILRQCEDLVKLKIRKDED

Inadl_1, Q8NI35 = target: Inadl_1, Q8NI35
Sequence of Inadl_1, Q8NI35 (Q8NI35 113-229): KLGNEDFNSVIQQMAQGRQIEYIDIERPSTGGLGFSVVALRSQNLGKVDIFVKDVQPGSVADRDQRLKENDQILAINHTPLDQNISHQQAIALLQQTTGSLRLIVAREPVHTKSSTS

TJP1_3, Q07157 = target: TJP1_3, Q07157
Sequence of TJP1_3, Q07157 (Q07157 416-512): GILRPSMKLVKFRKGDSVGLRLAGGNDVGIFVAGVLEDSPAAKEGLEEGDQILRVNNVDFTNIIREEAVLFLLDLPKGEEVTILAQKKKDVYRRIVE

APBA2_2, Q99767 = target: T2, APBA2_2, Q99767
NHERF3_3, Q5T2W1 = target: T3, NHERF3_3, Q5T2W1
TJP1_2, Q07157 = target: TJP1_2, Q07157
Sequence of TJP1_2, Q07157 (Q07157 181-274): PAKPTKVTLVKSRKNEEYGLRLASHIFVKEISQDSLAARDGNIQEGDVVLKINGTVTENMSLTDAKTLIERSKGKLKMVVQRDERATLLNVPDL

GORASP2, Q9H8Y8 = target: GORASP2, Q9H8Y8
Inadl_9, Q8NI35 = target: Inadl_9, Q8NI35
Sequence of Inadl_9, Q8NI35 (Q8NI35 1530-1615): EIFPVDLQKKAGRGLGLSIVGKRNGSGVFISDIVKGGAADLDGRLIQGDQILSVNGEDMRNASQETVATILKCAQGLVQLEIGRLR

MAST1, Q9Y2H9 = target: MAST1, Q9Y2H9
Sequence of MAST1, Q9Y2H9 (Q9Y2H9 962-1065): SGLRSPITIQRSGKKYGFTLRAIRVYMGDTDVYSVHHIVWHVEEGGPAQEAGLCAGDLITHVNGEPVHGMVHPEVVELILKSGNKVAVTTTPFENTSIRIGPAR

HTRA2, O43464 = target: HTRA2, O43464
Sequence of HTRA2, O43464 (O43464 355-458): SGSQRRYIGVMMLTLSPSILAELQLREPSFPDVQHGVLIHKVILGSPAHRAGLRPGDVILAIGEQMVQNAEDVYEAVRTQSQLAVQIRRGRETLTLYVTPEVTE

MAGI3_2, Q5TCQ9 = target: MAGI3_2, Q5TCQ9
Sequence of MAGI3_2, Q5TCQ9 (Q5TCQ9 398-503): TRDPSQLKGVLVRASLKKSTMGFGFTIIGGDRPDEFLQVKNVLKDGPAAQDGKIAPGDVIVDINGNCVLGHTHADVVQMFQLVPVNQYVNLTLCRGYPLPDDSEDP

LNX2_2, Q8N448 = target: T4, LNX2_2, Q8N448
HTRA1, Q92743 = target: HTRA1, Q92743
Sequence of HTRA1, Q92743 (Q92743 360-477): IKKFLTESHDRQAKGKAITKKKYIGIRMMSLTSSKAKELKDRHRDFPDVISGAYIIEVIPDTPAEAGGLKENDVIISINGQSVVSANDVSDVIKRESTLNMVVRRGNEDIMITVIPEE

Inadl_5, Q8NI35 = target: Inadl_5, Q8NI35
Sequence of Inadl_5, Q8NI35 (Q8NI35 673-780): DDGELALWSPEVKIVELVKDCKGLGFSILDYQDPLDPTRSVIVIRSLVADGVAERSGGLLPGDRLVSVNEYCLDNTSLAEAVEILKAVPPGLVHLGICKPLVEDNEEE

DFNB31_3, Q9P202 = target: T5, DFNB31_3, Q9P202
MAGI1_1, Q96QZ7 = target: MAGI1_1, Q96QZ7
Sequence of MAGI1_1, Q96QZ7 (Q96QZ7 1-106): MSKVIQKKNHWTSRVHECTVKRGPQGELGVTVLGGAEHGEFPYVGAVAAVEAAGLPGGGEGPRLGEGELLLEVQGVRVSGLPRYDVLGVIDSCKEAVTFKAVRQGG

DFNB31_2, Q9P202 = target: T6, DFNB31_2, Q9P202
MPDZ_10, O75970 = target: T7, MPDZ_10, O75970
SNX27, Q96L92 = target: SNX27, Q96L92
GOPC, Q9HD26 = target: GOPC, Q9HD26
PICK1, Q9NRD5 = target: PICK1, Q9NRD5
Sequence of PICK1, Q9NRD5 (Q9NRD5 17-115): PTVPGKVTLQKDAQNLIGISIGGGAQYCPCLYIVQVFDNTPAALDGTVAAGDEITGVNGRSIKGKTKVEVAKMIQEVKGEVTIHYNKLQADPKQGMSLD

LNX2_3, Q8N448 = target: T8, LNX2_3, Q8N448
GRID2IP_2, A4D2P6 = target: GRID2IP_2, A4D2P6
Sequence of GRID2IP_2, A4D2P6 (A4D2P6 272-370): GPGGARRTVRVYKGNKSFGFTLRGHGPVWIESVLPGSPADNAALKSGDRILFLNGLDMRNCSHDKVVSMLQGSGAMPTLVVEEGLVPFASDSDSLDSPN

HTRA3, P83110 = target: T9, HTRA3, P83110
Inadl_4, Q8NI35 = target: Inadl_4, Q8NI35
Sequence of Inadl_4, Q8NI35 (Q8NI35 547-651): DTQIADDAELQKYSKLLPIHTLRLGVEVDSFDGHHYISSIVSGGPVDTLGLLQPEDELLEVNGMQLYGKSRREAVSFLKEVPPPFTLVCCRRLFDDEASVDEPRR

Binder | pKd (IL16_3, Q14005) | pKd (DLG1_3, Q12959) | pKd (GRIP2_4, Q9C0E4) | pKd (ARHGEF11, O15085) | pKd (GRIP2_5, Q9C0E4) | pKd (Inadl_1, Q8NI35) | pKd (TJP1_3, Q07157) | pKd (APBA2_2, Q99767) | pKd (NHERF3_3, Q5T2W1) | pKd (TJP1_2, Q07157) | pKd (GORASP2, Q9H8Y8) | pKd (Inadl_9, Q8NI35) | pKd (MAST1, Q9Y2H9) | pKd (HTRA2, O43464) | pKd (MAGI3_2, Q5TCQ9) | pKd (LNX2_2, Q8N448) | pKd (HTRA1, Q92743) | pKd (Inadl_5, Q8NI35) | pKd (DFNB31_3, Q9P202) | pKd (MAGI1_1, Q96QZ7) | other results
QPGTPTRTAV [MAP2K2, P36507] | below the threshold | below the threshold | below the threshold | below the threshold | below the threshold | below the threshold | below the threshold | below the threshold | below the threshold | below the threshold | below the threshold | below the threshold | below the threshold | below the threshold | 3.84 | below the threshold | below the threshold | below the threshold | below the threshold | below the threshold | pKd (DFNB31_2, Q9P202): below the threshold; pKd (MPDZ_10, O75970): 3.59; pKd (SNX27, Q96L92): below the threshold; pKd (GOPC, Q9HD26): below the threshold; pKd (PICK1, Q9NRD5): below the threshold; pKd (LNX2_3, Q8N448): below the threshold; pKd (GRID2IP_2, A4D2P6): 4.27; pKd (HTRA3, P83110): 3.5; pKd (Inadl_4, Q8NI35): below the threshold
RRVRKLPSTTL [RPS6KA1, Q15418] | below the threshold | 3.63 | below the threshold | 4.44 | below the threshold | below the threshold | below the threshold | below the threshold | 3.61 | 3.51 | 3.59 | below the threshold | 4.68 | below the threshold | 4.23 | 3.6 | 4.09 | below the threshold | 4.14 | 3.64 | pKd (DFNB31_2, Q9P202): below the threshold; pKd (MPDZ_10, O75970): 3.76; pKd (SNX27, Q96L92): 3.5; pKd (GOPC, Q9HD26): 4.96; pKd (PICK1, Q9NRD5): below the threshold; pKd (LNX2_3, Q8N448): 3.71; pKd (GRID2IP_2, A4D2P6): 5.05; pKd (HTRA3, P83110): below the threshold; pKd (Inadl_4, Q8NI35): below the threshold
CNTVTVETVV [MAS1, P04201] | below the threshold | below the threshold | 3.55 | below the threshold | below the threshold | below the threshold | below the threshold | below the threshold | 3.54 | below the threshold | below the threshold | below the threshold | 3.58 | below the threshold | 3.78 | 4.13 | 3.61 | below the threshold | below the threshold | below the threshold | pKd (DFNB31_2, Q9P202): below the threshold; pKd (MPDZ_10, O75970): 3.51; pKd (SNX27, Q96L92): 4.57; pKd (GOPC, Q9HD26): below the threshold; pKd (PICK1, Q9NRD5): below the threshold; pKd (LNX2_3, Q8N448): below the threshold; pKd (GRID2IP_2, A4D2P6): below the threshold; pKd (HTRA3, P83110): below the threshold; pKd (Inadl_4, Q8NI35): below the threshold
DEDQHTQITKV [PTEN, P60484] | below the threshold | 3.71 | below the threshold | 4.33 | below the threshold | 3.77 | below the threshold | below the threshold | 3.67 | below the threshold | 3.82 | below the threshold | 4.79 | below the threshold | 4.03 | 4.25 | 4.27 | below the threshold | 3.71 | below the threshold | pKd (DFNB31_2, Q9P202): 3.62; pKd (MPDZ_10, O75970): 3.98; pKd (SNX27, Q96L92): 4.89; pKd (GOPC, Q9HD26): 4.24; pKd (PICK1, Q9NRD5): 3.77; pKd (LNX2_3, Q8N448): below the threshold; pKd (GRID2IP_2, A4D2P6): 4.03; pKd (HTRA3, P83110): below the threshold; pKd (Inadl_4, Q8NI35): below the threshold
NYWPGKETQL [SLCO1C1, Q9NYB5] | below the threshold | 5.02 | below the threshold | 4.53 | below the threshold | 4.12 | below the threshold | below the threshold | below the threshold | below the threshold | 3.98 | below the threshold | 5.26 | below the threshold | 4.75 | below the threshold | below the threshold | below the threshold | below the threshold | below the threshold | pKd (DFNB31_2, Q9P202): 4.36; pKd (MPDZ_10, O75970): below the threshold; pKd (SNX27, Q96L92): 5.24; pKd (GOPC, Q9HD26): 4.32; pKd (PICK1, Q9NRD5): below the threshold; pKd (LNX2_3, Q8N448): below the threshold; pKd (GRID2IP_2, A4D2P6): 4.29; pKd (HTRA3, P83110): below the threshold; pKd (Inadl_4, Q8NI35): below the threshold

— article PMC9482650, “Quantitative fragmentomics allow affinity mapping of interactomes” (Nature Communications, 2022)
